The results in this text go back to patent US20200239579A1 (Genmab, published 2020).

For test [1], the target named is T1, cynomolgus monkey PD-L1 (full length, on CHO cells) (cynomolgus monkey (Macaca fascicularis), UniProt G7PSE7 19-290).
T1 construct: whole, on cells; also called PDL1 Mf; cynomolgus PD-L1
Description: flow cytometry on CHO cells transfected with cynomolgus PD-L1, PE anti-human IgG secondary, MFI (PE). The procedure: (§1) Cells (3-5×10⁴ cells/well) were incubated in polystyrene 96-well round-bottom plates (Greiner bio-one, cat. no. 650101) with serial dilutions of antibodies (range 0.0001 to 10 μg/mL in 5-fold dilution steps) in 50 μL PBS/0.1% BSA/0.02% azide (staining buffer) at 4° C. for 30 min.
(§2) After washing twice in staining buffer, cells were incubated in 50 μL secondary antibody at 4° C. for 30 min. As a secondary antibody, R-Phycoerythrin (PE)-conjugated goat-anti-human IgG F(ab′)₂ (Cat. no. 109-116-098, Jackson ImmunoResearch Laboratories, Inc., West Grove, Pa.) diluted 1:500 in staining buffer, was used for all experiments. Next, cells were washed twice in staining buffer, re-suspended in 20 μL staining buffer and analyzed on an iQue screener (Intellicyt Corporation, USA). Binding curves were analyzed using non-linear regression (sigmoidal dose-response with variable slope) using GraphPad Prism V75.04 software (GraphPad Software, San Diego, Calif., USA).
Binding to CHO cells expressing cynomolgus PD-L1 was determined by flow cytometry using a method as described above.
Background: In flow cytometry, cells or beads pass a laser one at a time.

For test [2], the target named is T2, human PD-L1 (full length, on cells) (human, UniProt Q9NZQ7 19-290).
T2 construct: The entry holds the signal peptide; also called CD274; B7H1
The test can be described thus: flow cytometry on PC3 cells, PE anti-human IgG secondary, MFI (PE). How it is done:
as §1, §2

In test [3] the target is T2, human PD-L1 (full length, on cells). Description: flow cytometry on HELA cells, PE anti-human IgG secondary, MFI (PE). The procedure:
as §1, §2

Test [4] has as its target T3, human PD-L2 (full length, on CHO cells) (human, UniProt Q9BQ51 20-273).
T3 construct: whole, on cells; also called CHO-PD-L2 cells
T3 sequence (looked up): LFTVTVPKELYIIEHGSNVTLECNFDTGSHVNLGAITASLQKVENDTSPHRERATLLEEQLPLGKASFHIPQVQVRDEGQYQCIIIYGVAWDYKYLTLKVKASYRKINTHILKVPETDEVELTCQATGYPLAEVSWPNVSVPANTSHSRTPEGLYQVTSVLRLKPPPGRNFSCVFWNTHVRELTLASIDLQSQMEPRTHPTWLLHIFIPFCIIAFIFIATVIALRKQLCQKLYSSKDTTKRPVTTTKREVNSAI
Description: flow cytometry on CHO cells expressing human PD-L2. The procedure:
as §1, §2
A PE-conjugated PD-L2 specific antibody (Mylteni, clone MIH18; cat. no. 130-098-651) was used as positive control.

The target in test [5] is T2, human PD-L1 (full length, on cells). Description: flow cytometry on MDA-MB-231 cells, PE anti-human IgG secondary, MFI (PE). How it is done:
as §1, §2

Test [6] has the same target. Description: flow cytometry on HEK293 cells expressing wild type or alanine-mutant PD-L1.
The target is the same in test [7]. Description: flow cytometry on MDA-MB-231 cells, PE anti-human IgG secondary, MFI (PE). How it is done:
as §1, §2
This is another data set of the same source.

Test [8] deals with T4, PDLoneECDHisCtag (human, UniProt Q9NZQ7 19-238).
T4 construct: Expressed in HEK-293F cells; theoretical molecular weight 29 kDa; also called recombinant human PD-L1 ECD; human PD-L1 (BLI); not shown: C-terminal His-tag; C-tag
The test can be described thus: BLI cross-block, second antibody on PDLoneECDHisCtag held by immobilised MPDL; bold = blocking. How it is done: (§3) Antibody cross-block testing was performed using biolayer interferometry (BLI) on an Octet HTX instrument (ForteBio). Antibodies (20 μg/ml in 10 mM sodium acetate buffer pH 6.0 (ForteBio)) were immobilized on Amine-Reactive 2nd Generation (AR2G) biosensors (ForteBio) according to the instructions of the manufacturer. After a baseline (50 s) in Sample Diluent (ForteBio), biosensors containing immobilized antibodies were loaded for 500 s with PDLoneECDHisCtag (100 nM or 2.7 μg/ml), after which the association response of a second antibody (10 μg/ml) was followed for 500 s. Biosensors were regenerated by using 3 times 5 s alternating exposures to 10 mM glycine pH 2.5 and Sample Diluent. The experiment was repeated with a new set of second antibodies starting from the baseline step. Each biosensor was used 6 times. The experiment was performed at 30° C. using a shaker speed of 1000 rpm. Data was analyzed using Data Analysis Software v9.0.0.12 (ForteBio). The Y-axis was aligned to the association step and Savitzky-Golay filtering was applied. The average buffer response was subtracted from the association response of the second antibody in order to correct for the dissociation of PDLoneECDHisCtag from the immobilized antibody. The corrected association responses were plotted in a matrix format.

For test [9], the target named is T4, PDLoneECDHisCtag. The test can be described thus: BLI cross-block, second antibody on PDLoneECDHisCtag held by immobilised 511-LC33S; plain = non-blocking. How it is done: as §3
The target in test [10] is T4, PDLoneECDHisCtag. Description: BLI cross-block, second antibody on PDLoneECDHisCtag held by immobilised 632; plain = non-blocking. The procedure: as §3
Test [11] addresses T4, PDLoneECDHisCtag. Description: BLI cross-block, second antibody on PDLoneECDHisCtag held by immobilised 547; plain = non-blocking. The procedure: as §3
For test [12], the target named is T4, PDLoneECDHisCtag. The test can be described thus: BLI cross-block, second antibody on PDLoneECDHisCtag held by immobilised 516; bold = blocking. The procedure:
as §3

Test [13] concerns the target T4, PDLoneECDHisCtag. The test can be described thus: BLI cross-block, second antibody on PDLoneECDHisCtag held by immobilised 421-LC91S; bold = blocking. The procedure:
as §3

The target of test [14] is T4, PDLoneECDHisCtag. The test can be described thus: BLI cross-block, second antibody on PDLoneECDHisCtag held by immobilised 476-N101Q-LC33S; plain = non-blocking. The procedure: as §3

T4 sequence (Q9NZQ7 19-238, form in doubt): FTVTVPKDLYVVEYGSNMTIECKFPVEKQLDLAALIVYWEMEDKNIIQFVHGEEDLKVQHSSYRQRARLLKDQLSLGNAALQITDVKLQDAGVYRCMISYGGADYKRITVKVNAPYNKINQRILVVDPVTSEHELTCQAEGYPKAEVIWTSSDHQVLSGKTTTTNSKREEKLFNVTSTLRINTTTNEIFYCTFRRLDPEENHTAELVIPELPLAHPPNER
T2 sequence (Q9NZQ7 19-290 limits assumed): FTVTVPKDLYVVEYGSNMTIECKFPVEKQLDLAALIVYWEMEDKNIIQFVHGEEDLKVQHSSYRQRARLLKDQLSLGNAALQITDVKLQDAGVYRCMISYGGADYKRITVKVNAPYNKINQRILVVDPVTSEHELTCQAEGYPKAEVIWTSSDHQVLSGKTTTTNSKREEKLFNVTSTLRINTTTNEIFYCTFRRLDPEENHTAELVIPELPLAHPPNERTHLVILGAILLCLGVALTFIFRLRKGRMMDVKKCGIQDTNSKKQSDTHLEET
T1 sequence (G7PSE7 entry or part of it): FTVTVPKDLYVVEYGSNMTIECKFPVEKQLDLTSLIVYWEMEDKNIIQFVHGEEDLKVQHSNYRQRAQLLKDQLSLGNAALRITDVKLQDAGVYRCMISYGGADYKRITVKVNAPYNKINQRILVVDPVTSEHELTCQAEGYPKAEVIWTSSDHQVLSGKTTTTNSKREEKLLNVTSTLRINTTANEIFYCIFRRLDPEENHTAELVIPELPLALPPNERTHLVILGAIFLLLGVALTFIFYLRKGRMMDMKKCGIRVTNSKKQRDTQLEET

B1: bsIgG1-huCD3-H1L1-FEAL×338-FEAR (bispecific antibody)
heavy 1: not shown
VL: not shown
heavy 2: EVQVVESGGGLVQPGGSLRLSCAASGFTFSRFWMSWVRQAPGKGLEWVANIKQDGGEKYYVDSVKGRFTISRDNAKNSLYLQMNSLRGEDTAVYYCARDDNWNGHFDYWGQGTLVTVSSASTKGPSVFPLAPSSKSTSGGTAALGCLVKDYFPEPVTVSWNSGALTSGVHTFPAVLQSSGLYSLSSVVTVPSSSLGTQTYICNVNHKPSNTKVDKRVEPKSCDKTHTCPPCPAPEFEGGPSVFLFPPKPKDTLMISRTPEVTCVVVAVSHEDPEVKFNWYVDGVEVHNAKTKPREEQYNSTYRVVSVLTVLHQDWLNGKEYKCKVSNKALPAPIEKTISKAKGQPREPQVYTLPPSREEMTKNQVSLTCLVKGFYPSDIAVEWESNGQPENNYKTTPPVLDSDGSFFLYSRLTVDKSRWQQGNVFSCSVMHEALHNHYTQKSLSLSPGK
light: DIQMTQSPSTLSASVGDRVTITCRASQSISSWLAWYQQKPGKAPNLLIYKASSLESGVPSRFSGSGSGTEFTLTISSLQPDDFATYYCQQYYGSYITFGQGTRLEIKRTVAAPSVFIFPPSDEQLKSGTASVVCLLNNFYPREAKVQWKVDNALQSGNSQESVTEQDSKDSTYSLSSTLTLSKADYEKHKVYACEVTHQGLSSPVTKSFNRGEC
For the molecule B1, the “EC50 (read off the curve)” value in test [1] is around 0.09 µg/mL; in [2], around 0.03 µg/mL; in test [3], around 0.02 µg/mL; in test [5], around 0.1 µg/mL. Moreover, in test [4], the binding result is “no binding”.

B2: IgG1-625-FEAR-A488 (antibody, V domains shown)
VH: HMQLVESGGGVAQPGRSLRLSCAASGFTFSNYGMHWVRQAPGRGLEWLAVMSYDGETKYYADSVKGRFTISRDNSENTLFLQMNSLRAEDTAVYYCAKDTSNGWNYYFYGMDVWGQGTTVTVSS
VL: SYELTQPPSVSVSPGQTARITCSGDALPKKFASWYQQKSGQAPVLVIYEDSKRPSGIPERVSGSSSGTMATLTISGAQTEDEADYYCYSTDRSGYHWVFGGGTKLTVL
notes: also called control antibody of the alanine scan
With B2, the binding result in [6] is “binds”.

B3: bsIgG1-huCD3-H1L1-FEAL×547-FEAR (bispecific antibody)
heavy 1: not shown
VL: not shown
heavy 2: EVQLLEPGGGLVQPGGSLRLSCEASGSTFSTYAMSWVRQAPGKGLEWVSGFSGSGGFTFYADSVRGRFTISRDSSKNTLFLQMSSLRAEDTAVYYCAIPARGYNYGSFQHWGQGTLVTVSSASTKGPSVFPLAPSSKSTSGGTAALGCLVKDYFPEPVTVSWNSGALTSGVHTFPAVLQSSGLYSLSSVVTVPSSSLGTQTYICNVNHKPSNTKVDKRVEPKSCDKTHTCPPCPAPEFEGGPSVFLFPPKPKDTLMISRTPEVTCVVVAVSHEDPEVKFNWYVDGVEVHNAKTKPREEQYNSTYRVVSVLTVLHQDWLNGKEYKCKVSNKALPAPIEKTISKAKGQPREPQVYTLPPSREEMTKNQVSLTCLVKGFYPSDIAVEWESNGQPENNYKTTPPVLDSDGSFFLYSRLTVDKSRWQQGNVFSCSVMHEALHNHYTQKSLSLSPGK
light: SYVLTQPPSVSVAPGQTARITCGGNNIGSKSVHWYQQKPGQAPVLVVYDDNDRPSGLPERFSGSNSGNTATLTISRVEAGDEADYYCQVWDSSSDHVVFGGGTKLTVLGQPKAAPSVTLFPPSSEELQANKATLVCLISDFYPGAVTVAWKADSSPVKAGVETTTPSKQSNNKYAASSYLSLTPEQWKSHRSYSCQVTHEGSTVEKTVAPTECS
In the case of B3, the “EC50 (read off the curve)” value was around 0.06 µg/mL in [1], around 0.08 µg/mL in test [7], around 0.03 µg/mL in [2] and around 0.02 µg/mL in test [3]. Further, the binding result in test [4] is recorded as “no binding”.

B4: IgG1-516-FEAR (antibody, V domains shown)
VH: QVQLQESGPGLVKPSDTLSLTCAVSDYSISSNDWWGWIRQPPGKGLEWIGYIYYSGTGYYNPSLKSRVTISIDTSKNQFSLKLNSVTAVDTAVYYCARTRVGARRAFDYWGQGTLVTVSS
VL: SYVLTQPPSVSVAPGQTARITCGGNNIGSKSVHWYQQKPGQAPVLVVYDDSDRPSGIPERFSGSNSGNTATLTISRVEAGDEADYYCQVWDSSSDHVVFGGGTKLTVL
With B4, the “association response of the second antibody” value in the test with PDLoneECDHisCtag [8] amounted to 0 nm; in the test with PDLoneECDHisCtag [9], 0.6 nm; with PDLoneECDHisCtag [10], 0.6 nm; with PDLoneECDHisCtag [11], 0.7 nm; in the test with PDLoneECDHisCtag [12], 0 nm; with PDLoneECDHisCtag [13] it was 0 nm. Further, the “association response of the second antibody” value in the test with PDLoneECDHisCtag [14] amounted to 0.7 nm.

By EC50 (read off the curve) is commonly meant the concentration that produces a half-maximal response.
